According to patent US20070178101A1:

What was measured:
[1] = biological target: Ovr110-HA on stably transfected mouse LMTK cells (human) (UniProt Q7Z7D3); test: FACS on Ovr110-HA transfected mouse LMTK cells, secondary antibody alone
[2] = biological target: Ovr110-HA on stably transfected mouse LMTK cells (human) (UniProt Q7Z7D3); test: FACS on Ovr110-HA transfected mouse LMTK cells, secondary antibody alone, gate I

Donkey Anti-Mouse Ig-PE (antibody)
Mean of Fluorescence [1]: 0.48
Percentage of cells [2]: 0.6
